Measurements reported in article PMC10057847, “Precision engineering of biological function with large-scale measurements and machine learning” (PLOS ONE, 2023).

System: eYFP under the control of the lactose operator (lacO)
Test: in vivo dose-response curves of LacI variants to IPTG measured with flow cytometry (eYFP output), fit to the Hill equation
Type: cell-based, E. coli
Details: IPTG dose-response by flow cytometry
Protocol: Dose-response curves were measured with flow cytometry using E. coli MG1655Δlac transformed with variants of the pVER plasmid, described previously. The plasmid contained different variants of the lacI coding DNA sequence (CDS), as described in the text, and an expression cassette with enhanced yellow fluorescent protein (eYFP) under the control of the lactose operator (lacO). The lacI CDS was verified with Sanger sequencing for each variant.
All cultures were grown in a rich M9 media (3 g/L KH2PO4, 6.78 g/L Na2HPO4, 0.5 g/L NaCl, 1 g/L NH4Cl, 0.1 mmol/L CaCl2, 2 mmol/L MgSO4, 4% glycerol, and 20 g/L casamino acids) supplemented with 50 μg/mL kanamycin.
For flow cytometry measurements, E. coli cultures were grown in a laboratory automation system that included an automated liquid handler (Hamilton, STAR), an automated plate sealer (4titude, a4S), an automated de-sealer (Brooks, XPeel), and two multi-mode plate readers (BioTek, Neo2SM).
Cultures were grown in clear polystyrene 96-well plates with 1.1 mL square wells (4titude, 4ti-0255). The culture volume per well was 0.5 mL. Before incubation, each 96-well growth plate was sealed by the automated plate sealer with a gas permeable membrane (4titude, 4ti-0598). Growth plates were incubated in one of the multi-mode plate readers at 37°C with a 1°C gradient applied from the bottom to the top of the incubation chamber to minimize condensation on the inside of the membrane. The plate readers were set for double-orbital shaking at 807 cycles per minute. Optical density at 600 nm (OD600) was measured every 5 minutes during incubation, with continuous shaking applied between measurements (optical density at 700 nm and YFP fluorescence were also measured every 5 minutes). After incubation, the automated de-sealer was used to remove the gas-permeable membrane from each 96-well plate to enable automated passaging of cultures and sample preparation for flow cytometry measurements.
For each measurement, starter cultures were prepared from glycerol freezer stock in 5 mL of rich M9 media in a 14 mL snap-cap culture tubes. Starter cultures were incubated at 37°C with orbital shaking at 300 rpm for between 4 h and 24 h prior to loading the automation system. The automation system then prepared 96-well growth plates, sealed and de-sealed the growth plates, incubated the growth plates, and prepared flow cytometry sample plates. The automated culture protocol consisted of the following steps: […]

Molecule	dose-response phenotype (in words)
pVER-IPTG-WT(Q181H): LacI variant: Q181H (protein, UniProt P03023 1-360, looked up, variant Q181H) Lactose operon repressor: MKPVTLYDVAEYAGVSYQTVSRVVNQASHVSAKTREKVEAAMAELNYIPNRVAQQLAGKQSLLIGVATSSLALHAPSQIVAAIKSRADQLGASVVVSMVERSGVEACKAAVHNLLAQRVSGLIINYPLDDQDAIAVEAACTNVPALFLDVSDQTPINSIIFSHEDGTRLGVEHLVALGHQHIALLAGPLSSVSARLRLAGWHKYLTRNQIQPIAEREGDWSAMSGFQQTMQMLNEGIVPTAMLVANDQMALGAMRAITESGLRVGADISVVGYDDTEDSSCYIPPLTTIKQDFRLLGQTSVDRLLQLSQGQAVKGNQLLPVSLVKRKTTLAPNTQTASPRALADSLMQLARQVSRLESGQ	silent in wild-type background
pVER-IPTG-WT(N208Y): LacI variant: N208Y (protein, UniProt P03023 1-360, looked up, variant N208Y) Lactose operon repressor: MKPVTLYDVAEYAGVSYQTVSRVVNQASHVSAKTREKVEAAMAELNYIPNRVAQQLAGKQSLLIGVATSSLALHAPSQIVAAIKSRADQLGASVVVSMVERSGVEACKAAVHNLLAQRVSGLIINYPLDDQDAIAVEAACTNVPALFLDVSDQTPINSIIFSHEDGTRLGVEHLVALGHQQIALLAGPLSSVSARLRLAGWHKYLTRYQIQPIAEREGDWSAMSGFQQTMQMLNEGIVPTAMLVANDQMALGAMRAITESGLRVGADISVVGYDDTEDSSCYIPPLTTIKQDFRLLGQTSVDRLLQLSQGQAVKGNQLLPVSLVKRKTTLAPNTQTASPRALADSLMQLARQVSRLESGQ	silent in wild-type background
pVER-IPTG-WT(V271M): LacI variant: V271M (protein, UniProt P03023 1-360, looked up, variant V271M) Lactose operon repressor: MKPVTLYDVAEYAGVSYQTVSRVVNQASHVSAKTREKVEAAMAELNYIPNRVAQQLAGKQSLLIGVATSSLALHAPSQIVAAIKSRADQLGASVVVSMVERSGVEACKAAVHNLLAQRVSGLIINYPLDDQDAIAVEAACTNVPALFLDVSDQTPINSIIFSHEDGTRLGVEHLVALGHQQIALLAGPLSSVSARLRLAGWHKYLTRNQIQPIAEREGDWSAMSGFQQTMQMLNEGIVPTAMLVANDQMALGAMRAITESGLRVGADISVMGYDDTEDSSCYIPPLTTIKQDFRLLGQTSVDRLLQLSQGQAVKGNQLLPVSLVKRKTTLAPNTQTASPRALADSLMQLARQVSRLESGQ	silent in wild-type background
pVER-IPTG-WT(S190C): LacI variant: S190C (protein, UniProt P03023 1-360, looked up, variant S190C) Lactose operon repressor: MKPVTLYDVAEYAGVSYQTVSRVVNQASHVSAKTREKVEAAMAELNYIPNRVAQQLAGKQSLLIGVATSSLALHAPSQIVAAIKSRADQLGASVVVSMVERSGVEACKAAVHNLLAQRVSGLIINYPLDDQDAIAVEAACTNVPALFLDVSDQTPINSIIFSHEDGTRLGVEHLVALGHQQIALLAGPLCSVSARLRLAGWHKYLTRNQIQPIAEREGDWSAMSGFQQTMQMLNEGIVPTAMLVANDQMALGAMRAITESGLRVGADISVVGYDDTEDSSCYIPPLTTIKQDFRLLGQTSVDRLLQLSQGQAVKGNQLLPVSLVKRKTTLAPNTQTASPRALADSLMQLARQVSRLESGQ	silent in wild-type background
pVER-IPTG-WT(Q231R): LacI variant: Q231R (protein, UniProt P03023 1-360, looked up, variant Q231R) Lactose operon repressor: MKPVTLYDVAEYAGVSYQTVSRVVNQASHVSAKTREKVEAAMAELNYIPNRVAQQLAGKQSLLIGVATSSLALHAPSQIVAAIKSRADQLGASVVVSMVERSGVEACKAAVHNLLAQRVSGLIINYPLDDQDAIAVEAACTNVPALFLDVSDQTPINSIIFSHEDGTRLGVEHLVALGHQQIALLAGPLSSVSARLRLAGWHKYLTRNQIQPIAEREGDWSAMSGFQQTMRMLNEGIVPTAMLVANDQMALGAMRAITESGLRVGADISVVGYDDTEDSSCYIPPLTTIKQDFRLLGQTSVDRLLQLSQGQAVKGNQLLPVSLVKRKTTLAPNTQTASPRALADSLMQLARQVSRLESGQ	silent in wild-type background
